Data: PMC4212957, “The serodominant secreted effector protein of Salmonella, SseB, is a strong CD4 antigen containing an immunodominant epitope presented by diverse HLA class II alleles” (Immunology, 2014)

Key:
[1] = target: HLA-DRB1*01:01 (Homo sapiens, UniProt P01903+P01911, A100R/D57E/F55L/F60I/F76Y/I96L/L162R/M171V/P40L/Q125E/R42F/V115G/Y59C); settings: competitive ELISA; ratio IC50 of peptide / IC50 of reference peptide HA 306–318; lower = higher affinity; ratio 20 or less high, 20–100 moderate; three independent experiments
[2] = target: T1, HLA-DRB1*15:01 (Homo sapiens, UniProt P01903+P01911); assay: Peptide/HLA-DR binding, competitive ELISA; settings: ratio IC50 of peptide / IC50 of reference peptide A3 152–166, lower = higher affinity, ratio 20 or less high, 20–100 moderate, three independent experiments
T1 construct: HLA-DR heterodimers were purified from homozygous Epstein–Barr virus B-lymphoblastoid cell lines; host or cells: homozygous EBV B-lymphoblastoid cell line
Method: (§1) HLA-DR heterodimers were purified from homozygous Epstein–Barr virus B-lymphoblastoid cell lines (HPA Culture Collections, Salisbury, UK) by affinity chromatography with the monomorphic HLA-DRα monoclonal antibody, L243.[29],[30] Binding of the SseB peptide panel to the HLA-DR molecules HLA-DRB1*01:01, 03:01, 04:01, 07:01, 09:01, 11:01, 12:02, 15:01, 15:02 was assessed by competitive ELISA, as previously described, using an automated workstation.[29],[30] We evaluated the peptide concentration able to prevent binding of 50% of the labelled peptide (IC50). Data were expressed as relative affinity: ratio of the IC50 of the peptide to the IC50 of the reference peptide, which is a high binder to the HLA class II molecule. Unlabelled forms of the biotinylated peptides were used as reference peptides.

[3] = target: T2, HLA-DRB1*09:01 (Homo sapiens, UniProt P01903+P01911, A100R/A103E/D57H/D86V/F55Y/F60I/F76Y/I96F/K127E/L162R/M171V/P40D/Q125H/Q99R/R33Q/R42F/S133A/S66N/T210M/V115G/W38K/Y107V/Y59G/Y89S); assay: Peptide/HLA-DR binding, competitive ELISA; settings: ratio IC50 of peptide / IC50 of reference peptide CTP 427–441, lower = higher affinity, ratio 20 or less high, 20–100 moderate, three independent experiments
T2 construct: HLA-DR heterodimers were purified from homozygous Epstein–Barr virus B-lymphoblastoid cell lines; host or cells: homozygous EBV B-lymphoblastoid cell line
Method: as §1

[4] = target: HLA-DRB1*12:02 (Homo sapiens, UniProt P01903+P01911, A100R/A169T/D57E/D86V/F55L/H45Y/I96F/K41T/L162R/M171V/P40S/Q125H/Q178H/Q39Y/Q99D/R42G/S66L/T262R/V114A/V67L/W38E/Y59H/Y61H/Y89S); assay: Peptide/HLA-DR binding, competitive ELISA; settings: ratio IC50 of peptide / IC50 of reference peptide TFR 141–155, lower = higher affinity, ratio 20 or less high, 20–100 moderate, three independent experiments
Method: as §1

[5] = target: T3, HLA-DRB1*03:01 (Homo sapiens, UniProt P01903+P01911, A100K/A102G/A103R/A169T/F55Y/I96L/K41T/L162R/M171V/P40S/Q125H/Q178H/Q39Y/R42S/S66N/T106N/T262R/W38E/Y61H); assay: Peptide/HLA-DR binding, competitive ELISA; settings: ratio IC50 of peptide / IC50 of reference peptide MT2-16, lower = higher affinity, ratio 20 or less high, 20–100 moderate, three independent experiments
T3 construct: HLA-DR heterodimers were purified from homozygous Epstein–Barr virus B-lymphoblastoid cell lines; host or cells: homozygous EBV B-lymphoblastoid cell line
Method: as §1

[6] = target: T4, HLA-DRB1*15:02 (Homo sapiens, UniProt P01903+P01911, V115G); assay: Peptide/HLA-DR binding, competitive ELISA; settings: ratio IC50 of peptide / IC50 of reference peptide TFR 607–620, lower = higher affinity, ratio 20 or less high, 20–100 moderate, three independent experiments
T4 construct: HLA-DR heterodimers were purified from homozygous Epstein–Barr virus B-lymphoblastoid cell lines; host or cells: homozygous EBV B-lymphoblastoid cell line
Method: as §1

[7] = target: HLA-DRB1*04:01 (Homo sapiens, UniProt P01903+P01911, A100K/A169T/F76Y/I96L/K127E/L162R/M171V/N62H/P40V/Q125Y/R42H/S133A/S149N/S66Y/V115G/V209L/W38E); settings: competitive ELISA; ratio IC50 of peptide / IC50 of reference peptide HA 306–318; lower = higher affinity; ratio 20 or less high, 20–100 moderate; three independent experiments
[8] = target: HLA-DRB1*07:01 (Homo sapiens, UniProt P01903+P01911, A100R/A102G/A103Q/D57E/D86V/E43K/F76Y/K127E/L162R/M171V/P40G/Q125H/Q99D/R33Q/R42Y/R54Q/S133A/S66F/T210M/V115G/Y107V/Y59L/Y89S); settings: competitive ELISA; ratio IC50 of peptide / IC50 of reference peptide HA 306–318; lower = higher affinity; ratio 20 or less high, 20–100 moderate; three independent experiments
[9] = target: HLA-DRB1*11:01 (Homo sapiens, UniProt P01903+P01911, A100R/A169T/A87E/I96F/K41T/L162R/M171V/P40S/Q125H/Q178H/Q39Y/Q99D/R42S/S66Y/T262R/V115G/W38E); settings: competitive ELISA; ratio IC50 of peptide / IC50 of reference peptide HA 306–318; lower = higher affinity; ratio 20 or less high, 20–100 moderate; three independent experiments

Substance: 9: SseB overlapping library peptide, residues 81–100 (MDEVIAKAAKGDAKTKEEVP) [Peptide 9]
- Relative binding affinity of peptide to HLA-DR molecules DRB1*0101 [1]: 1508
- Relative binding affinity of peptide to HLA-DR molecules DRB1*1501 [2]: 200
- Relative binding affinity of peptide to HLA-DR molecules DRB1*0901 [3]: 626
- Relative binding affinity of peptide to HLA-DR molecules DRB1*1202 [4]: > 136
- Relative binding affinity of peptide to HLA-DR molecules DRB1*0301 [5]: 41
- Relative binding affinity of peptide to HLA-DR molecules DRB1*1502 [6]: > 3 333
- Relative binding affinity of peptide to HLA-DR molecules DRB1*0401 [7]: > 145
- Relative binding affinity of peptide to HLA-DR molecules DRB1*0701 [8]: > 336
- Relative binding affinity of peptide to HLA-DR molecules DRB1*1101 [9]: 8

Substance: 10: SseB overlapping library peptide, residues 91–110 (GDAKTKEEVPEDVIKYMRDN) [Peptide 10]
- Relative binding affinity of peptide to HLA-DR molecules DRB1*0101 [1]: > 4149
- Relative binding affinity of peptide to HLA-DR molecules DRB1*1501 [2]: 58
- Relative binding affinity of peptide to HLA-DR molecules DRB1*0901 [3]: > 689
- Relative binding affinity of peptide to HLA-DR molecules DRB1*1202 [4]: > 136
- Relative binding affinity of peptide to HLA-DR molecules DRB1*0301 [5]: > 119
- Relative binding affinity of peptide to HLA-DR molecules DRB1*1502 [6]: > 3 333
- Relative binding affinity of peptide to HLA-DR molecules DRB1*0401 [7]: > 145
- Relative binding affinity of peptide to HLA-DR molecules DRB1*0701 [8]: 87
- Relative binding affinity of peptide to HLA-DR molecules DRB1*1101 [9]: > 278

Substance: 12: SseB overlapping library peptide, residues 111–130 (GILIDGMTIDDYMAKYGDHG) [Peptide 12]
- Relative binding affinity of peptide to HLA-DR molecules DRB1*0101 [1]: > 4149
- Relative binding affinity of peptide to HLA-DR molecules DRB1*1501 [2]: 12
- Relative binding affinity of peptide to HLA-DR molecules DRB1*0901 [3]: > 689
- Relative binding affinity of peptide to HLA-DR molecules DRB1*1202 [4]: 105
- Relative binding affinity of peptide to HLA-DR molecules DRB1*0301 [5]: 18
- Relative binding affinity of peptide to HLA-DR molecules DRB1*1502 [6]: 1 826
- Relative binding affinity of peptide to HLA-DR molecules DRB1*0401 [7]: > 145
- Relative binding affinity of peptide to HLA-DR molecules DRB1*0701 [8]: 167
- Relative binding affinity of peptide to HLA-DR molecules DRB1*1101 [9]: > 278

Substance: 13: SseB overlapping library peptide, residues 121–140 (DYMAKYGDHGKLDKGGLQAI) [Peptide 13]
- Relative binding affinity of peptide to HLA-DR molecules DRB1*0101 [1]: 2958
- Relative binding affinity of peptide to HLA-DR molecules DRB1*1501 [2]: 12
- Relative binding affinity of peptide to HLA-DR molecules DRB1*0901 [3]: > 689
- Relative binding affinity of peptide to HLA-DR molecules DRB1*1202 [4]: > 136
- Relative binding affinity of peptide to HLA-DR molecules DRB1*0301 [5]: > 119
- Relative binding affinity of peptide to HLA-DR molecules DRB1*1502 [6]: 2 000
- Relative binding affinity of peptide to HLA-DR molecules DRB1*0401 [7]: > 145
- Relative binding affinity of peptide to HLA-DR molecules DRB1*0701 [8]: > 336
- Relative binding affinity of peptide to HLA-DR molecules DRB1*1101 [9]: > 278

Substance: 15: SseB overlapping library peptide, residues 141–160 (KAALDNDANRNTDLMSQGQI) [Peptide 15]
- Relative binding affinity of peptide to HLA-DR molecules DRB1*0101 [1]: > 4149
- Relative binding affinity of peptide to HLA-DR molecules DRB1*1501 [2]: > 270
- Relative binding affinity of peptide to HLA-DR molecules DRB1*0901 [3]: > 689
- Relative binding affinity of peptide to HLA-DR molecules DRB1*1202 [4]: > 136
- Relative binding affinity of peptide to HLA-DR molecules DRB1*0301 [5]: 57
- Relative binding affinity of peptide to HLA-DR molecules DRB1*1502 [6]: > 3 333
- Relative binding affinity of peptide to HLA-DR molecules DRB1*0401 [7]: > 145
- Relative binding affinity of peptide to HLA-DR molecules DRB1*0701 [8]: > 336
- Relative binding affinity of peptide to HLA-DR molecules DRB1*1101 [9]: > 278

Substance: 16: SseB overlapping library peptide, residues 151–170 (NTDLMSQGQITIQKMSQELN) [Peptide 16]
- Relative binding affinity of peptide to HLA-DR molecules DRB1*0101 [1]: 964
- Relative binding affinity of peptide to HLA-DR molecules DRB1*1501 [2]: > 270
- Relative binding affinity of peptide to HLA-DR molecules DRB1*0901 [3]: > 689
- Relative binding affinity of peptide to HLA-DR molecules DRB1*1202 [4]: 52
- Relative binding affinity of peptide to HLA-DR molecules DRB1*0301 [5]: > 119
- Relative binding affinity of peptide to HLA-DR molecules DRB1*1502 [6]: > 3 333
- Relative binding affinity of peptide to HLA-DR molecules DRB1*0401 [7]: > 145
- Relative binding affinity of peptide to HLA-DR molecules DRB1*0701 [8]: > 336
- Relative binding affinity of peptide to HLA-DR molecules DRB1*1101 [9]: > 278

Substance: 17: SseB overlapping library peptide, residues 161–180 (TIQKMSQELNAVLTQLTGLI) [Peptide 17]
- Relative binding affinity of peptide to HLA-DR molecules DRB1*0101 [1]: 18
- Relative binding affinity of peptide to HLA-DR molecules DRB1*1501 [2]: > 270
- Relative binding affinity of peptide to HLA-DR molecules DRB1*0901 [3]: > 689
- Relative binding affinity of peptide to HLA-DR molecules DRB1*1202 [4]: > 136
- Relative binding affinity of peptide to HLA-DR molecules DRB1*0301 [5]: > 119
- Relative binding affinity of peptide to HLA-DR molecules DRB1*1502 [6]: > 3 333
- Relative binding affinity of peptide to HLA-DR molecules DRB1*0401 [7]: > 145
- Relative binding affinity of peptide to HLA-DR molecules DRB1*0701 [8]: 8
- Relative binding affinity of peptide to HLA-DR molecules DRB1*1101 [9]: > 278

Substance: MSSGNILWGSQNPIVFKNSF [Peptide 1]
- Relative binding affinity of peptide to HLA-DR molecules DRB1*0101 [1]: 447
- Relative binding affinity of peptide to HLA-DR molecules DRB1*1501 [2]: 7
- Relative binding affinity of peptide to HLA-DR molecules DRB1*0901 [3]: > 689
- Relative binding affinity of peptide to HLA-DR molecules DRB1*1202 [4]: 3
- Relative binding affinity of peptide to HLA-DR molecules DRB1*0301 [5]: > 119
- Relative binding affinity of peptide to HLA-DR molecules DRB1*1502 [6]: > 3 333
- Relative binding affinity of peptide to HLA-DR molecules DRB1*0401 [7]: 12
- Relative binding affinity of peptide to HLA-DR molecules DRB1*0701 [8]: 6
- Relative binding affinity of peptide to HLA-DR molecules DRB1*1101 [9]: > 278
